Reference: patent US10654908B2, “Isolated T cell receptors and methods of use therefor” (University of Virginia Patent Foundation, priority 2014, dated 2020)
Where no end group is shown, it is not given here. [ ]: non-standard residue; d: D form. pS = N[C@@H](COP(=O)(O)O)C(=O)O

What was measured:
[1] = system: human CD8 T-cells; assay: IFN-γ ELISpot of human CD8 T-cells cultured 7 days with peptide-pulsed DC; assay type: cell-based; settings: for donors with pre-existing memory response: CD45RO+ CD8 T-cells from four donors, 7 days, cutoff >50 spots/25,000 cells; for magnitude of phosphopeptide-specific IFN-γ responses of normal donor T-cells: bulk CD8 T-cells, 7 days with peptide-pulsed autologous DC, restimulated with phosphopeptide-pulsed HLA-A2+ targets
[2] = Immunization of AAD transgenic mice with phosphopeptide-pulsed DC; settings: mouse
[3] = system: HLA-A2+ cancer cell lines; assay: CD107a / IFN-γ flow cytometry after co-culture with human cancer cells; assay type: cell-based; settings: for HLA-A2+ breast carcinomas recognized / HLA-A2+ colorectal carcinomas recognized / HLA-A2+ melanomas recognized / HLA-A2+ ovarian carcinomas recognized: recognized / evaluated cell lines
Protocol: (§1) 14-16 hours post-electroporation, phosphopeptide-specific murine TCR-transfected human CD8 T-cells were co-cultured in AIM-V (Life Technologies Corporation, Gaithersburg, Md., United States of America) supplemented with 5% human AB^+ serum (GEMCELL™; Gemini Bio-Products, West Sacramento, Calif., United States of America) with peptide-pulsed or unpulsed C1R-AAD, C1R-A2, or cancer cells endogenously expressing the pIRS-21097-1105 or the pCDC25b38-46 phosphopeptide. Cell surface expression of mouse TCRβ, human CD3, and human CD8 molecules on human CD8 T-cells were assessed using antibodies from either Becton Dickinson Bioscience (San Jose, Calif., United States of America) or eBioScience Inc. (San Diego, Calif., United States of America). During a 5 hour co-culture of stimulator cells with phosphopeptide-specific murine TCR-transfected human CD8-T cells at 37° C., anti-human CD107a-Alexa 647 antibody (eBioScience Inc., San Diego, Calif., United States of America) was added in the presence of 5 μg/ml Brefeldin A (SIGMA-ALDRICH® Co. LLC, St. Louis, Mo., United States of America), 5 μg/ml Monensin (eBioScience Inc., San Diego, Calif., United States of America) and 300 IU/ml human IL-2 (Chiron Corporation, Emeryville, Calif., United States of America). Cells were then stained for surface molecule expression, fixed and permeabilized using CYTOFIX/CYTOPERM™ (Becton Dickinson Bioscience (San Jose, Calif., United States of America) and stained for intracellular cytokine (anti-IFN-γand anti-TNF-α, eBioScience Inc., San Diego, Calif., United States of America). Immunofluoresence was analyzed using the Becton Dickinson FACSCANTO™ I or FACSCANTO™II flow cytometer and analyzed using FlowJo software (Tree Star, Inc., Ashland, Oreg., United States of America).
Whether these transfected human CD8 T-cells could recognize endogenously processed and presented pIRS-21097-1105 or pCDC25b38-46 phosphopeptide on HLA-A2^+ cancer cell lines was investigated. To correlate pIRS-21097-1105-specific T-cell recognition with phosphopeptide expression, an antibody specific for the Ser^1100-phosphorylated IRS-2 protein (pSer^1100-IRS-2) as well as an antibody that recognizes total IRS-2 protein (Zarling et al., 2006) were employed. […] These two cell lines also expressed high levels of pSer^1100-IRS-2 (FIG. 4). […] There is no specific antibody for Ser^42-phosphorylated CDC25b.

[4] = system: C1R-A2 cells pulsed with 1 μM phosphopeptide; assay: In vitro cytotoxicity assay (CFSE); assay type: cell-based, human; settings: 5 hours co-culture, pulsed versus unpulsed C1R-A2
Protocol: Phosphopeptide-specific murine TCR-expressing human CD8 T-cells were co-cultured for 5 hours with a 1:1 mix of C1R-A2 cells pulsed with 1 μM phosphopeptide and stained with 1 μM carboxyfluorescein succinimidyl ester (CFSE; Life Technologies) and unpulsed C1R-A2 cells stained with 0.1 μM CFSE. Specific killing was assessed by evaluating percent loss of the peptide-pulsed population relative to the unpulsed population.

[5] = system: pCDC25b38-46-pulsed C1R-AAD and C1R-A2 targets; assay: CD107a / IFN-γ flow cytometry of TCR-electroporated human CD8 T-cells on pCDC25b peptide-pulsed targets; assay type: cell-based
Protocol: (§2) Prior to electroporation, donor T-cells were washed three times in serum-free OPTI-MEM® media (Life Technologies Corporation, Gaithersburg, Md., United States of America) and were suspended at 25×10^6/ml. Cells were mixed with 2 μg IVT RNA of each TCR α and β chain per 10^6 cells and transferred to pre-chilled BTX 2 mm gap cuvettes. Using the BTX T820 electroporation system (BTX Instrument Division, Harvard Apparatus, Inc. Holliston, Mass., United States of America), cells were pulsed at 500V for 0.3 msec. Transfected cells were placed in AIM-V® brand serum-free medium (Life Technologies Corporation, Gaithersburg, Md., United States of America) with 5% AB^+ serum (GEMCELL™; Gemini Bio-Products, West Sacramento, Calif., United States of America) for 8-24 hours and evaluated for TCR expression and functionality.
as §1, with “During a 5 hour co-culture of stimulator cells with phosphopeptide-specific murine TCR-transfected human CD8-T cells at 37° C., anti-human CD107a-Alexa 647 antibody (eBioScience Inc., San Diego, Calif., United States of America) was added in the presence of 5 μg/ml Brefeldin A (SIGMA-ALDRICH® Co. LLC, St. Louis, Mo., United States of America), 5 μg/ml Monensin (eBioScience Inc., San Diego, Calif., United States of America) and 300 IU/ml human IL-2 (Chiron Corporation, Emeryville, Calif., United States of America).” left out

[6] = system: AAD+ SLM2 melanoma cells; assay: Tumor control after adoptive transfer of TCR-expressing human CD8 T-cells; assay type: in vivo, NOD/SCID/IL-2Rγc−/− mice; settings: for tumor-free survival: T-cells on days 3 and 7 plus IL-2, versus IL-2 only control, tumor-free = tumor size not >30 mm^2; for tumor outgrowth in comparison to control animals: control received IL-2 only
From the text: Seven to 8 week old male […] mice (The Jackson Laboratory, Bar Harbor, Me., United States of America) were inoculated subcutaneously with 1.4×10^6 AAD^+ SLM2 melanoma cells. 3×10^6 human CD8 T-cells expressing either pIRS-2- or pCDC25b-specific TCR, or 1.5×10^6 of both populations, were adoptively transferred 3 days later. An additional 1.5×10^6 T-cells were given 4 days later. All mice received 1500 CU of IL-2 (R&D Systems, Inc., Minneapolis, Minn., United States of America) […]. every other day for 10 days. Tumor size was measured every 2-3 days with a digital caliper, and calculated as L×W (mm^2). Tumor free survival is equal to the measurement day when the tumor size was >30 mm^2.
Log-rank (Mantel Cox Test) analysis, Cox proportional hazard modeling, and parametric modeling were performed to determine statistical significance where indicated. p values less than 0.05 were considered significant.

[7] = system: pIRS-21097-1105-pulsed C1R-AAD and C1R-A2 targets; assay: CD107a / IFN-γ flow cytometry of TCR-electroporated human CD8 T-cells on pIRS-2 peptide-pulsed targets; assay type: cell-based
Protocol: as §2
as §1, with “During a 5 hour co-culture of stimulator cells with phosphopeptide-specific murine TCR-transfected human CD8-T cells at 37° C., anti-human CD107a-Alexa 647 antibody (eBioScience Inc., San Diego, Calif., United States of America) was added in the presence of 5 μg/ml Brefeldin A (SIGMA-ALDRICH® Co. LLC, St. Louis, Mo., United States of America), 5 μg/ml Monensin (eBioScience Inc., San Diego, Calif., United States of America) and 300 IU/ml human IL-2 (Chiron Corporation, Emeryville, Calif., United States of America).” left out

[8] = human CD8 T-cells electroporated with TCR IVT RNA, phosphopeptide-pulsed AAD+ targets, IFN-γ / CD107a, read-out: peptide dose for half-maximal recognition

Row | Molecule | immunogenicity in vitro for human T-cells [1] | donors with pre-existing memory response [1] | magnitude of phosphopeptide-specific IFN-γ responses of normal donor T-cells [1] | immunogenicity in vivo for HLA-A2 transgenic mice [2] | recognition (CD107a / IFN-γ) of HLA-A2+ melanoma cell lines MelSwift and 1102Mel [3] | recognition of HLA-A2neg melanoma SK-Mel-28 or HLA-A2+ antigen-low ovarian carcinoma OV-90 [3] | HLA-A2+ breast carcinomas recognized [3] | HLA-A2+ colorectal carcinomas recognized [3] | HLA-A2+ melanomas recognized [3] | HLA-A2+ ovarian carcinomas recognized [3] | specific killing of peptide-pulsed targets [4] | tumor-free survival [6] | tumor outgrowth in comparison to control animals [6] | also measured
1 | GLLGpSPVRA (GLLG[pS]PVRA; listed as Homo sapiens) [pCDC25b38-46] | strongly immunogenic | all four and four | surprisingly high | strongly immunogenic | – | – | – | – | – | – | – | – | – | –
2 | RVApSPTSGV (RVA[pS]PTSGV; listed as Homo sapiens) [pIRS-21097-1105] | strongly immunogenic | 2/4 | surprisingly high | strongly immunogenic | – | – | – | – | – | – | – | – | – | –
3 | pCDC25b-specific TCR: murine TCR binding GLLGpSPVRA/HLA-A2; α chain SEQ ID NO: 14, β chain SEQ ID NO: 16; tested expressed in human CD8 T-cells (protein, listed as Mus musculus) alpha: MKTVTGPLFLCFWLQLNCVSRGEQVEQRPPHLSVREGDSAVIICTYTDPNSYYFFWYKQEPGAGLQLLMKVFSSTEINEGQGFTVLLNKKDQQLSLNLTAAHPGDSAVYFCAVKPGGYKVVFGSGTRLLVSPDIQNPEPAVYQLKDPRSQDSTLCLFTDFDSQINVPKTMESGTFITDKTVLDMKAMDSKSNGAIAWSNQTSFTCQDIFKETNATYPSSDVPCDATLTEKSFETDMNLNFQNLSVMGLRILLLKVAGFNLLMTLRLWSS beta: MSNTAFPDPAWNTTLLSWVALFLLGTKHMEAAVTQSPRNKVAVTGGKVTLSCNQTNNHNNMYWYRQDTGHGLRLIHYSYGAGSTEKGDIPDGYKASRPSQENFSLILELATPSQTSVYFCASGGDTQYFGPGTRLLVLEDLRNVTPPKVSLFEPSKAEIANKQKATLVCLARGFFPDHVELSWWVNGKEVHSGVSTDPQAYKERNYSYCLSSRLRVSATFWHNPRNHFRCQVQFHGLSEEDKWPEGSPKPVTQNISAEAWGRADCGITSASYHQGVLSATILYEILLGKATLYAVLVSGLVLMAMVKKKNS | – | – | – | – | recognized two HLA-A2^+ melanomas | failed to recognize | 3/3 | did not recognize | 3/4 | did not recognize | killed pCDC25b38-46-pulsed but not pIRS-21097-1105 or pβ-catenin30-39-pulsed targets | enhanced tumor-free survival | delayed outgrowth | recognition of HLA-A2+ EBV-transformed lymphoblastoid cell line JY [3]: did recognize; recognition of HLA-A2neg cancer cells T47D and SK-Mel-28 [3]: did not recognize; level of recognition of cancer cells ([3]; compared with peptide-pulsed targets): relatively low; recognition of phosphopeptide-pulsed targets expressing HLA-A2 compared with AAD [5]: at least as well as those expressing AAD; response to HLA-A2+ targets pulsed with high levels of the non-phosphorylated peptide ([5]; IFN-γ / CD107a): Neither cell produced IFN-γ or upregulated CD107a; EC50 [5, 8]: 0.4 to 0.8 nM
4 | pIRS-2-specific murine TCR: murine TCR binding RVApSPTSGV/HLA-A2; α chain SEQ ID NO: 4, β chain SEQ ID NO: 6; tested expressed in human CD8 T-cells (protein, listed as Mus musculus) alpha: MLLALLPVLGIHFVLRDAQAQSVTQPDARVTVSEGASLQLRCKYSYSGTPYLFWYVQYPRQGLQLLLKYYSGDPVVQGVNGFEAEFIKSNSSFHLRKASVHWSDSAVYFCAVSEGADRLTFGKGTQLIIQPYIQNPEPAVYQLKDPRSQDSTLCLFTDFDSQINVPKTMESGTLITDKTVLDMKAMDSKSNGAIAWSNQTSFTCQDIFKETNATYPSSDVPCDATLTEKSFETDMNLNFQNLSVMGLRILLLKVAGFNLLMTLRLWSS beta: MGTRLLGWAVFCLLDTVLSEAGVTQSPRYAVLQEGQAVSFWCDPISGHDTLYWYQQPRDQGPQLLVYFRDEAVIDNSQLPSDRFSAVRPKGTNSTLKIQSAKQGDTATYLCASSLLDSSYEQYFGPGTRLTVLEDLRNVTPPKVSLFEPSKAEIANKQKATLVCLARGFFPDHVELSWWVNGKEVHSGVSTDPQAYKESNYSYCLSSRLRVSATFWHNPRNHFRCQVQFHGLSEEDKWPEGSPKPVTQNISAEAWGRADCGITSASYHQGVLSATILYEILLGKATLYAVLVSGLVLMAMVKKKNS | – | – | – | – | substantial fraction of pIRS-21097-1105-specific T-cells upregulated CD107a | no recognition was evident | 2/3 | 2/2 | 10/10 | 3/4 | killed pIRS-21097-1105-pulsed, but not pCDC25b38-46-pulsed, targets | enhanced tumor-free survival | delayed outgrowth | recognition of phosphopeptide-pulsed targets expressing HLA-A2 compared with AAD [7]: at least as well as those expressing AAD; response to HLA-A2+ targets pulsed with high levels of the non-phosphorylated peptide ([7]; IFN-γ / CD107a): Neither cell produced IFN-γ or upregulated CD107a; EC50 [7, 8]: 0.4 to 0.8 nM
